From publication PMC8622885

Target: thermostable exoshell (tES) (Archaeoglobus fulgidus) (UniProt O29424)
Assay: AUC; unpublished observations; no conditions given

Chain of UniProt O29424 (O29424 entry or part of it): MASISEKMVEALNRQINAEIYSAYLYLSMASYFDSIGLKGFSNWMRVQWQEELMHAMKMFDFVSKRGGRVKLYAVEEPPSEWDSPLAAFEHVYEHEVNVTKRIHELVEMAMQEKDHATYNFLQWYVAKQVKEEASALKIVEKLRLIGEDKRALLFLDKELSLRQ

- stoichiometry N (HRP molecules per tES): 2
Substance: horseradish peroxidase (HRP) (from UniProt P00433 31-338) (enzyme)
